Assays:
[1] = p24 ELISA of virus replication over 12 days; details: glycan lost; control: CXCR4 wt cells
[2] = flow cytometry, PE-labelled mAb 12G5, cell surface; details: glycan lost; control: CXCR4 wt (CXCR4+g1g2)

| Protein | other: cell permissiveness for HIV-1 (coreceptor function) [1] | expression_or_secretion, percent_of_wt [2] |
| --- | --- | --- |
| CXCR4: N11Q/N176Q (protein) parent chain: MEGISIYTSDNYTEEMGSGDYDSMKEPCFREENANFNKIFLPTIYSIIFLTGIVGNGLVILVMGYQKKLRSMTDKYRLHLSVADLLFVITLPFWAVDAVANWYFGNFLCKAVHVIYTVNLYSSVLILAFISLDRYLAIVHATNSQRPRKLLAEKVVYVGVWIPALLLTIPDFIFANVSEADDRYICDRFYPNDLWVVVFQFQHIMVGLILPGIVILSCYCIIISKLSHSKGHQKRKALKTTVILILAFFACWLPYYIGISIDSFILLEIIKQGCEFENTVHKWISITEALAFFHCCLNPILYAFLGAKFKTSAQHALTSVSRGSSLKILSKGKRGGHSSVSTESESSSFHSS | no change | – |
| CXCR4: N176Q (protein) parent chain: MEGISIYTSDNYTEEMGSGDYDSMKEPCFREENANFNKIFLPTIYSIIFLTGIVGNGLVILVMGYQKKLRSMTDKYRLHLSVADLLFVITLPFWAVDAVANWYFGNFLCKAVHVIYTVNLYSSVLILAFISLDRYLAIVHATNSQRPRKLLAEKVVYVGVWIPALLLTIPDFIFANVSEADDRYICDRFYPNDLWVVVFQFQHIMVGLILPGIVILSCYCIIISKLSHSKGHQKRKALKTTVILILAFFACWLPYYIGISIDSFILLEIIKQGCEFENTVHKWISITEALAFFHCCLNPILYAFLGAKFKTSAQHALTSVSRGSSLKILSKGKRGGHSSVSTESESSSFHSS | no change | no change |
| CXCR4: S178A (protein) parent chain: MEGISIYTSDNYTEEMGSGDYDSMKEPCFREENANFNKIFLPTIYSIIFLTGIVGNGLVILVMGYQKKLRSMTDKYRLHLSVADLLFVITLPFWAVDAVANWYFGNFLCKAVHVIYTVNLYSSVLILAFISLDRYLAIVHATNSQRPRKLLAEKVVYVGVWIPALLLTIPDFIFANVSEADDRYICDRFYPNDLWVVVFQFQHIMVGLILPGIVILSCYCIIISKLSHSKGHQKRKALKTTVILILAFFACWLPYYIGISIDSFILLEIIKQGCEFENTVHKWISITEALAFFHCCLNPILYAFLGAKFKTSAQHALTSVSRGSSLKILSKGKRGGHSSVSTESESSSFHSS | no change | no change |
| CXCR4: T13A (protein) parent chain: MEGISIYTSDNYTEEMGSGDYDSMKEPCFREENANFNKIFLPTIYSIIFLTGIVGNGLVILVMGYQKKLRSMTDKYRLHLSVADLLFVITLPFWAVDAVANWYFGNFLCKAVHVIYTVNLYSSVLILAFISLDRYLAIVHATNSQRPRKLLAEKVVYVGVWIPALLLTIPDFIFANVSEADDRYICDRFYPNDLWVVVFQFQHIMVGLILPGIVILSCYCIIISKLSHSKGHQKRKALKTTVILILAFFACWLPYYIGISIDSFILLEIIKQGCEFENTVHKWISITEALAFFHCCLNPILYAFLGAKFKTSAQHALTSVSRGSSLKILSKGKRGGHSSVSTESESSSFHSS | no change | – |
| CXCR4: N11Q (protein) parent chain: MEGISIYTSDNYTEEMGSGDYDSMKEPCFREENANFNKIFLPTIYSIIFLTGIVGNGLVILVMGYQKKLRSMTDKYRLHLSVADLLFVITLPFWAVDAVANWYFGNFLCKAVHVIYTVNLYSSVLILAFISLDRYLAIVHATNSQRPRKLLAEKVVYVGVWIPALLLTIPDFIFANVSEADDRYICDRFYPNDLWVVVFQFQHIMVGLILPGIVILSCYCIIISKLSHSKGHQKRKALKTTVILILAFFACWLPYYIGISIDSFILLEIIKQGCEFENTVHKWISITEALAFFHCCLNPILYAFLGAKFKTSAQHALTSVSRGSSLKILSKGKRGGHSSVSTESESSSFHSS | no change | – |

Source: PMC139973
